Results on one molecule are retold here after US20120202218A1 (MODPRO, published 2012).

Data set [1] deals with the molecule itself. As to the kind of experiment: Zn2+-induced gold nanoparticle aggregation (UV-vis, TEM).
The target of data set [2] is Human Carbonic Anhydrase II (human, UniProt P00918 2-260). Kind of data set: Zn2+-induced gold nanoparticle aggregation assay, particles with 0% KE2C-C6 (JR2EC only).

B1: JR2EC (peptide)
peptide: H-NAADLEKAIEALEKHLEAKGPCDAAQLEKQLEQAFEAFERAG-OH
modifications: also: Cys22 thiol bound to gold nanoparticle surface
notes: Synthetic Glu-rich 42-residue helix-loop-helix peptide; It dimerizes and folds into a four-helix bundle at pH<6, or at pH 7 with Zn2+; Immobilized on gold nanoparticles; also called aggregating polypeptide
Turning to B1, the binding result in data set [1] is “binds”; in data set [2] it was “no binding (tested: 70 nM)”.
